# In patent publication US20250339569A1 (3B PHARMACEUTICALS, published 2025):
# Starred links: 1 amine or outer side, 2 acyl side, 3 side chain; linkers in the order of their positions; H or OH if unused. Positions of bridges follow the written chain, without caps; N, C: chain ends. Non-standard residues stand in square brackets, D forms with d. Groups on a side chain read outwards from the residue. Primed or numbered codes have the meaning given here. ξ: configuration not given here. *: point of attachment. Af3(MSAc) = 3-aminophenylalanine with 2-methanesulfonylacetyl on the ring amine, CS(=O)(=O)CC(=O)Nc1cccc(C[C@H](N[*:1])C(=O)[*:2])c1; Af3(Iva) = 3-aminophenylalanine with isovaleryl on the ring amine, CC(C)CC(=O)Nc1cccc(C[C@H](N[*:1])C(=O)[*:2])c1; DOTA(In) = O=C1CN2CCN3CCN(CC(=O)*)CCN(CC2)CC(=O)[O][In]([O]1)[O]C(=O)C3; APAc″ = 2-(4-(amino)piperidin-1-yl)acetic acid, NC1CCN(CC(=O)*)CC1; DOTA = O=C(O)CN1CCN(CC(=O)O)CCN(CC(=O)*)CCN(CC(=O)O)CC1; Trp(5-Cl) = N[C@@H](Cc1c[nH]c2ccc(Cl)cc12)C(=O)O; Phe(3,4-Cl2) = N[C@@H](Cc1ccc(Cl)c(Cl)c1)C(=O)O; Phe(3-CF3) = N[C@@H](Cc1cccc(C(F)(F)F)c1)C(=O)O; ξTrp(7-Me) = Cc1cccc2c(CC(N)C(=O)O)c[nH]c12; ξTrp(1-Me) = Cn1cc(CC(N)C(=O)O)c2ccccc21; Ttds(3) = NCCCOCCOCCOCCCNC(=O)CCC(=O)*; dmo = (R)-dimethylornithine (D form); mXylylene = c1cc(C[*:1])cc(C[*:2])c1; Orn(Me2) = CN(C)CCC[C@H](N)C(=O)O; Isovaleryl = CC(C)CC(=O)*; dPip = O=C(O)[C@H]1CCCCN1; hSer = N[C@@H](CCO)C(=O)O; AGLU′ = not defined here; Ac6c = NC1(C(=O)O)CCCCC1; Nle = CCCC[C@H](N)C(=O)O; dNMeA = CN[C@H](C)C(=O)O; 4Amc = not defined here; APAc = not defined here; Apr = not defined here; Dap = NC[C@H](N)C(=O)O; AEEA = NCCOCCOCC(=O)O; Sar = CNCC(=O)O
# Key:
# [1] = molecular target: T1, Fc-fusion protein of human carbonic anhydrase IX (human, UniProt Q16790 38-414); experiment: SPR, captured hCAIX-Fc; pKD category A: >8.0
# Method: (§1) Stock solutions of test compounds were prepared by dissolving each compound in DMSO. DMSO stock solution were diluted 1:1000 in Running Buffer without DMSO. […] SPR binding analyses were performed in Single Cycle Kinetic (SCK) mode at 25° C.
# (§2) For each test compound, SPR raw data in the form of resonance units (RU) were plotted as sensorgrams using the Biacore™ T200 control software. The signal from the blank sensorgram was subtracted from that of the test compound sensorgram (blank corrected). The blank corrected sensorgram was corrected for baseline drift by subtracting the sensorgram of a SCK run without the test compound (running buffer only). […] Raw data and fit results were imported as text files in IDBS. The pKD value (negative decadic logarithm of dissociation constant) was calculated in the IDBS excel template.
# [2] = molecular target: T1, Fc-fusion protein of human carbonic …; experiment: SPR, captured hCAIX-Fc; t1/2 category B: 5.1-15.0 min
# Method: as §1, §2
pKD [1] [pkd],"t1/2 (half-life of the complex, SPR) [2] [min]",Binder
> 8,5.1 to 15,{DOTA-APAc″}-VYCE[dP]D[Af3(MSAc)]LTWSC-NH2 (linker 3-12 via mXylylene) [3BP-4242]
> 8,5.1 to 15,{DOTA}-YCE[dP]DWLTWSC-NH2 (linker 2-11 via mXylylene; SMILES CC(C)C[C@@H]1NC(=O)[C@H](Cc2c[nH]c3ccccc23)NC(=O)[C@H](CC(=O)O)NC(=O)[C@H]2CCCN2C(=O)[C@H](CCC(=O)O)NC(=O)[C@@H](NC(=O)[C@H](Cc2ccc(O)cc2)NC(=O)CN2CCN(CC(=O)O)CCN(CC(=O)O)CCN(CC(=O)O)CC2)CSCc2cccc(c2)CSC[C@@H](C(N)=O)NC(=O)[C@H](CO)NC(=O)[C@H](Cc2c[nH]c3ccccc23)NC(=O)[C@H]([C@@H](C)O)NC1=O) [3BP-3859]
> 8,5.1 to 15,Isovaleryl-YCE[dP]DWLTWE([Apr-AEEA-DOTA])C-NH2 (linker 2-11 via 3MeBn; reading uncertain) [3BP-3740]
> 8,5.1 to 15,{DOTA-APAc″}-VYCE[dP]D[ξTrp(1-Me)]LTWSC-NH2 (linker 3-12 via mXylylene; not fully specified) [3BP-4144]
> 8,5.1 to 15,{DOTA-Ttds(3)}-[Nle]YCE[dP]DWLTWSC-NH2 (linker 3-12 via mXylylene) [3BP-3870]
> 8,5.1 to 15,Ac-VYCE[dNMeA]DWLTWAC-NH2 (linker 3-12 via mXylylene; SMILES CC(=O)N[C@H](C(=O)N[C@@H](Cc1ccc(O)cc1)C(=O)N[C@H]1CSCc2cccc(c2)CSC[C@@H](C(N)=O)NC(=O)[C@H](C)NC(=O)[C@H](Cc2c[nH]c3ccccc23)NC(=O)[C@H]([C@@H](C)O)NC(=O)[C@H](CC(C)C)NC(=O)[C@H](Cc2c[nH]c3ccccc23)NC(=O)[C@H](CC(=O)O)NC(=O)[C@@H](C)N(C)C(=O)[C@H](CCC(=O)O)NC1=O)C(C)C) [3BP-3281]
> 8,5.1 to 15,{DOTA-APAc}-VYCE[dmo]DWLTWSC-NH2 (linker 3-12 via mXylylene; reading uncertain) [3BP-4097]
> 8,5.1 to 15,Ac-VYCE[Sar]D[Trp(5-Cl)]LTWQC-NH2 (linker 3-12 via mXylylene; SMILES CC(=O)N[C@H](C(=O)N[C@@H](Cc1ccc(O)cc1)C(=O)N[C@H]1CSCc2cccc(c2)CSC[C@@H](C(N)=O)NC(=O)[C@H](CCC(N)=O)NC(=O)[C@H](Cc2c[nH]c3ccccc23)NC(=O)[C@H]([C@@H](C)O)NC(=O)[C@H](CC(C)C)NC(=O)[C@H](Cc2c[nH]c3ccc(Cl)cc23)NC(=O)[C@H](CC(=O)O)NC(=O)CN(C)C(=O)[C@H](CCC(=O)O)NC1=O)C(C)C) [3BP-3289]
> 8,5.1 to 15,Ac-VYCE[dPip]DWLTWAC-NH2 (linker 3-12 via mXylylene; SMILES CC(=O)N[C@H](C(=O)N[C@@H](Cc1ccc(O)cc1)C(=O)N[C@H]1CSCc2cccc(c2)CSC[C@@H](C(N)=O)NC(=O)[C@H](C)NC(=O)[C@H](Cc2c[nH]c3ccccc23)NC(=O)[C@H]([C@@H](C)O)NC(=O)[C@H](CC(C)C)NC(=O)[C@H](Cc2c[nH]c3ccccc23)NC(=O)[C@H](CC(=O)O)NC(=O)[C@H]2CCCCN2C(=O)[C@H](CCC(=O)O)NC1=O)C(C)C) [3BP-3283]
> 8,5.1 to 15,{DOTA-4Amc}-YCE[dP]DWLTWSC-NH2 (linker 2-11 via mXylylene; reading uncertain) [3BP-3868]
> 8,5.1 to 15,{DOTA(In)}-YCE[dP]KWLEWSC-NH2 (linker 2-11 via mXylylene; lactam 5-8; also: indium complexed by DOTA) [3BP-4053]
> 8,5.1 to 15,{DOTA-APAc}-V[Orn(Me2)]CE[dP]DWLTWSC-NH2 (linker 3-12 via mXylylene; reading uncertain) [3BP-4095]
> 8,5.1 to 15,{DOTA-APAc}-VYCE[dP]DW[Ac6c]TWSC-NH2 (linker 3-12 via mXylylene; reading uncertain) [3BP-3584]
> 8,5.1 to 15,{DOTA-APAc}-VYCE[dP]D[Phe(3-CF3)]LTWSC-NH2 (linker 3-12 via mXylylene; not fully specified; reading uncertain) [3BP-4135]
> 8,5.1 to 15,{DOTA-APAc″}-VYCE[dP]D[ξTrp(7-Me)]LTWSC-NH2 (linker 3-12 via mXylylene; not fully specified) [3BP-4158]
> 8,5.1 to 15,Ac-VRCE[dP]DWLTWE([Apr-AEEA-DOTA])C-NH2 (linker 3-12 via 3MeBn; reading uncertain) [3BP-3734]
> 8,5.1 to 15,Ac-VFCE[dP]DWLTWE([Apr-DOTA])C-NH2 (linker 3-12 via mXylylene; reading uncertain) [3BP-3874]
> 8,5.1 to 15,{DOTA-APAc}-VSCE[dP]DWLTWSC-NH2 (linker 3-12 via mXylylene; reading uncertain) [3BP-4105]
> 8,5.1 to 15,{DOTA-APAc}-VYCE[dE](AGLU′)DWLTWSC-NH2 (linker 3-12 via mXylylene; reading uncertain) [3BP-4119]
> 8,5.1 to 15,Ac-SYCE[dP]DWLTWE([Apr-DOTA])C-NH2 (linker 3-12 via mXylylene; reading uncertain) [3BP-3873]
> 8,5.1 to 15,{DOTA-APAc}-VYCQ[dP]DWLTWSC-NH2 (linker 3-12 via mXylylene; reading uncertain) [3BP-4104]
> 8,5.1 to 15,{DOTA-APAc}-VE(AGLU′)CE[dP]DWLTWSC-NH2 (linker 3-12 via mXylylene; reading uncertain) [3BP-4112]
> 8,5.1 to 15,{DOTA}-DCE[dP]DWLTW[Dap]C-NH2 (lactam 10-1; linker 2-11 via mXylylene; SMILES CC(C)C[C@@H]1NC(=O)[C@H](Cc2c[nH]c3ccccc23)NC(=O)[C@H](CC(=O)O)NC(=O)[C@H]2CCCN2C(=O)[C@H](CCC(=O)O)NC(=O)[C@@H]2CSCc3cccc(c3)CSC[C@@H](C(N)=O)NC(=O)[C@H](CNC(=O)C[C@H](NC(=O)CN3CCN(CC(=O)O)CCN(CC(=O)O)CCN(CC(=O)O)CC3)C(=O)N2)NC(=O)[C@H](Cc2c[nH]c3ccccc23)NC(=O)[C@H]([C@@H](C)O)NC1=O) [3BP-4253]
> 8,5.1 to 15,{DOTA-APAc″}-VYCE[dP]D[Af3(Iva)]LTWSC-NH2 (linker 3-12 via mXylylene) [3BP-4236]
> 8,5.1 to 15,Ac-K(DOTA)VYCE[dP]DWLTWSC-NH2 (linker 4-13 via 3MeBn) [3BP-3840]
> 8,5.1 to 15,{DOTA-APAc}-VYC[Orn(Me2)][dP]DWLTWSC-NH2 (linker 3-12 via mXylylene; reading uncertain) [3BP-4096]
> 8,5.1 to 15,"{DOTA-APAc}-VYCE[dP]D[Phe(3,4-Cl2)]LTWSC-NH2 (linker 3-12 via mXylylene; not fully specified; reading uncertain) [3BP-4133]"
> 8,5.1 to 15,{DOTA-APAc}-VYC[hSer][dP]DWLTWSC-NH2 (linker 3-12 via mXylylene; reading uncertain) [3BP-4101]
